Patent publication US11872270B2, “A*03 restricted peptides for use in immunotherapy against cancers and related methods” (Immatics Biotechnologies GmbH, priority 2018, dated 2024)

Molecular target: HLA-A*03:01 (Homo sapiens, UniProt P04439)
Assay: MHC binding assay (UV-ligand exchange, β2m ELISA)
Settings: binding to HLA-A*03:01, UV-ligand exchange, β2m ELISA
From the text: Candidate peptides for T cell based therapies according to the present invention were further tested for their MHC binding capacity (affinity). The individual peptide-MHC complexes were produced by UV-ligand exchange, where a UV-sensitive peptide is cleaved upon UV-irradiation and exchanged with the peptide of interest as analyzed. Only peptide candidates that can effectively bind and stabilize the peptide-receptive MHC molecules prevent dissociation of the MHC complexes. To determine the yield of the exchange reaction, an ELISA was performed based on the detection of the light chain (β2m) of stabilized MHC complexes. The assay was performed as generally described in Rodenko et al. (Rodenko et al., 2006) 96 well MAXISorp plates (NUNC) were coated over night with 2 ug/ml streptavidin in PBS at room temperature, washed 4× and blocked for 1 h at 37° C. in 2% BSA containing blocking buffer. Refolded HLA-A*02:01/MLA-001 monomers served as standards, covering the range of 15-500 ng/ml. Peptide-MHC monomers of the UV-exchange reaction were diluted 100-fold in blocking buffer. Samples were incubated for 1 h at 37° C., washed four times, incubated with 2 ug/ml HRP conjugated anti-β2m for 1 h at 37° C., washed again and detected with TMB solution that is stopped with […]. Absorption was measured at 450 nm. Candidate peptides that show a high exchange yield (preferably higher than 50%, most preferred higher than 75%) are generally preferred for a generation and production of antibodies or fragments thereof, and/or T cell receptors or fragments thereof, as they show sufficient avidity to the MHC molecules and prevent dissociation of the MHC complexes.

Row | Substance | Peptide exchange (MHC class I binding score, peptide exchange yield)
1 | 153 (LASSPAGHK; listed as Homo sapiens) [compound 153] | +++ (>50 = +++)
2 | 154 (TIASVLVAR; listed as Homo sapiens) [compound 154] | ++ (>20% = ++)
3 | 156 (VSLGIAVSK; listed as Homo sapiens) [compound 156] | ++ (>20% = ++)
4 | 158 (RALGVPFVPR; listed as Homo sapiens) [compound 158] | ++++ (>75% = ++++)
5 | 160 (RLLPGKVVWK; listed as Homo sapiens) [compound 160] | ++++ (>75% = ++++)
6 | 161 (MKTLPAMLGTGK; listed as Homo sapiens) [compound 161] | ++ (>20% = ++)
7 | 163 (MLYYPSVSR; listed as Homo sapiens) [compound 163] | ++++ (>75% = ++++)
8 | 164 (RLAQYTIER; listed as Homo sapiens) [compound 164] | ++++ (>75% = ++++)
9 | 165 (AATIISSAK; listed as Homo sapiens) [compound 165] | + (>10% = +)
10 | 168 (ATNGKVLKK; listed as Homo sapiens) [compound 168] | ++++ (>75% = ++++)
11 | 169 (ATNGKVLKKR; listed as Homo sapiens) [compound 169] | ++++ (>75% = ++++)
12 | 171 (ATIGLSVSK; listed as Homo sapiens) [compound 171] | ++++ (>75% = ++++)
13 | 172 (SLLEADPFLK; listed as Homo sapiens) [compound 172] | +++ (>50 = +++)
14 | 173 (VSYNRLIK; listed as Homo sapiens) [compound 173] | +++ (>50 = +++)
15 | 174 (KMMKRLMTVEK; listed as Homo sapiens) [compound 174] | ++++ (>75% = ++++)
16 | 175 (VIGTTSSPK; listed as Homo sapiens) [compound 175] | +++ (>50 = +++)
17 | 176 (RLYDAYVNR; listed as Homo sapiens) [compound 176] | ++++ (>75% = ++++)
18 | 177 (ALLGVIIAKK; listed as Homo sapiens) [compound 177] | ++++ (>75% = ++++)
19 | 178 (RIYVYVKRK; listed as Homo sapiens) [compound 178] | +++ (>50 = +++)
20 | 179 (KINPTASLK; listed as Homo sapiens) [compound 179] | +++ (>50 = +++)
21 | 180 (RLKMAQESVSK; listed as Homo sapiens) [compound 180] | ++++ (>75% = ++++)

Row | Substance | Peptide exchange (MHC class I binding score, peptide exchange yield)
22 | 181 (RVAEEILIK; listed as Homo sapiens) [compound 181] | +++ (>50 = +++)
23 | 182 (QICLPAIYK; listed as Homo sapiens) [compound 182] | ++++ (>75% = ++++)
24 | 183 (KVYIPPIINK; listed as Homo sapiens) [compound 183] | ++++ (>75% = ++++)
25 | 184 (KVLEPPLGAR; listed as Homo sapiens) [compound 184] | +++ (>50 = +++)
26 | 185 (SIINFKPLTY; listed as Homo sapiens) [compound 185] | +++ (>50 = +++)
27 | 187 (KTCQVSGLLY; listed as Homo sapiens) [compound 187] | ++++ (>75% = ++++)
28 | 188 (SSLPRAFQK; listed as Homo sapiens) [compound 188] | ++ (>20% = ++)
29 | 189 (KVFEEPEDFLK; listed as Homo sapiens) [compound 189] | ++ (>20% = ++)
30 | 190 (RSKWSNVFK; listed as Homo sapiens) [compound 190] | ++++ (>75% = ++++)
31 | 191 (SLYNLGGAK; listed as Homo sapiens) [compound 191] | ++++ (>75% = ++++)
32 | 192 (RSYSHVVLK; listed as Homo sapiens) [compound 192] | ++++ (>75% = ++++)
33 | 193 (IVYPSATDKTK; listed as Homo sapiens) [compound 193] | +++ (>50 = +++)
34 | 195 (KLQAKVLQY; listed as Homo sapiens) [compound 195] | ++++ (>75% = ++++)
35 | 196 (AISSTVLGK; listed as Homo sapiens) [compound 196] | ++++ (>75% = ++++)
36 | 197 (RIVDYLLEK; listed as Homo sapiens) [compound 197] | ++++ (>75% = ++++)
37 | 199 (IVFPDVISK; listed as Homo sapiens) [compound 199] | ++++ (>75% = ++++)
38 | 200 (RVLPPLTRILK; listed as Homo sapiens) [compound 200] | ++++ (>75% = ++++)
39 | 201 (KVADFGLARLLK; listed as Homo sapiens) [compound 201] | ++++ (>75% = ++++)
40 | 202 (RLFPGLYLGY; listed as Homo sapiens) [compound 202] | +++ (>50 = +++)
41 | 203 (IVAFIPLSNK; listed as Homo sapiens) [compound 203] | ++++ (>75% = ++++)
42 | 204 (VAFIPLSNK; listed as Homo sapiens) [compound 204] | ++++ (>75% = ++++)

Row | Substance | Peptide exchange (MHC class I binding score, peptide exchange yield)
43 | 205 (RVYPRPPSK; listed as Homo sapiens) [compound 205] | ++++ (>75% = ++++)
44 | 206 (RLYEMILQR; listed as Homo sapiens) [compound 206] | ++++ (>75% = ++++)
45 | 208 (KTGWFTLLY; listed as Homo sapiens) [compound 208] | ++++ (>75% = ++++)
46 | 209 (KILDRVLSRY; listed as Homo sapiens) [compound 209] | ++++ (>75% = ++++)
47 | 210 (KIFQGQINK; listed as Homo sapiens) [compound 210] | ++++ (>75% = ++++)
48 | 211 (VSLGTPIMK; listed as Homo sapiens) [compound 211] | +++ (>50 = +++)
49 | 212 (RTIDRSVFK; listed as Homo sapiens) [compound 212] | ++++ (>75% = ++++)
50 | 213 (KLYPTHACR; listed as Homo sapiens) [compound 213] | ++++ (>75% = ++++)
51 | 215 (KIWQNLRLK; listed as Homo sapiens) [compound 215] | +++ (>50 = +++)
52 | 216 (RVSSVKLISK; listed as Homo sapiens) [compound 216] | +++ (>50 = +++)
53 | 217 (RVYEGDGRNSLK; listed as Homo sapiens) [compound 217] | +++ (>50 = +++)
54 | 218 (KAFNQSSIFTK; listed as Homo sapiens) [compound 218] | +++ (>50 = +++)
55 | 219 (ALERKFRQK; listed as Homo sapiens) [compound 219] | ++++ (>75% = ++++)
56 | 220 (ALPRQAFHSK; listed as Homo sapiens) [compound 220] | ++++ (>75% = ++++)
57 | 221 (RLAVSTRGK; listed as Homo sapiens) [compound 221] | ++++ (>75% = ++++)
58 | 222 (RSNPYFQNK; listed as Homo sapiens) [compound 222] | ++++ (>75% = ++++)
59 | 223 (GISNPITTSK; listed as Homo sapiens) [compound 223] | ++++ (>75% = ++++)
60 | 224 (SLYDGFLSY; listed as Homo sapiens) [compound 224] | ++++ (>75% = ++++)
61 | 225 (RVYPRPPSKTY; listed as Homo sapiens) [compound 225] | ++++ (>75% = ++++)
62 | 226 (RVWLGKHYK; listed as Homo sapiens) [compound 226] | ++++ (>75% = ++++)
